# Results published in publication PMC2888511.
# Columns and labels:
# Beclin 1 [1] = target: Beclin 1 (UniProt Q14457); assay: anti-flag IP of flag-Beclin 1, HA-Vps34 blot; conditions: reference: wild type with Cdk5/p25; sites T159
# Beclin 1 [2] = target: Beclin 1 (UniProt Q14457); assay: anti-flag IP of flag-Vps34, GFP-Beclin 1 blot; conditions: reference: wild type with Cdk5/p25; sites T159
substance,measurement,setting,value
Vps34 (from UniProt Q8NEB9) T159A with Cdk5/p25,binding against the reference,Beclin 1 [1],stronger
same,binding against the reference,Beclin 1 [2],stronger
